Assay results reported in patent CN108003238A (VELOX PHARMACEUTICALS INC, dated 2018).

Key:
[1] = molecular target: 小鼠CTLA4/CD152蛋白(His标签) (mouse) (UniProt P09793); assay: ELISA, mouse CTLA-4 coated, anti-human Fc HRP detection
[2] = molecular target: T1, Human CTLA-4/CD152 Protein (His Tag), Biotinylated (human, UniProt P16410 36-161, biotinylated (site not stated)); assay: multi-cycle kinetics on OCTET, antibody captured on Protein A, CTLA-4 diluted 2-fold from 33 nM over 7 points
T1 construct: Bought recombinant protein; also called 人CTLA-4蛋白; 抗原; not shown: His tag
T1 sequence (looked up): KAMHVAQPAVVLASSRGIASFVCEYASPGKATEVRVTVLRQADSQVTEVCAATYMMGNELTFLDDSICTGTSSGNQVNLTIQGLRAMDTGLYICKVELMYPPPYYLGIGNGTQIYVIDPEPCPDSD

Chain of UniProt P09793 (P09793 36-161 limits assumed): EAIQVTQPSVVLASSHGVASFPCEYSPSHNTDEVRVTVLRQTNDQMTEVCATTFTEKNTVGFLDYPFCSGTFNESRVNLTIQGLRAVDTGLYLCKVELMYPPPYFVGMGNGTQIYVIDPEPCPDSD

B1: IgG1-6E2-CTLA-4 (antibody, V domains shown)
VH: QVQLVQSGAEVKKPGSSVKVSCKASGGTFSSYGISWVRQAPGQGLEWMGGIIPIFETSESAQKFQGRVTFTADKSSSTGYMELSSLRSEDTAIYYCARDPLHRSSSGTYYHYFMDVWGQGTMVTVSS
VL: QAVLTQPSSLSASPGASVSLTCTLRSGINVGAYRIYWYQQKPGSPPQFLLRYKSDSDKEQGRGVPSRFSGSKDASANAGILLISGLQSEDEADYYCMIWHNNAVFFGGGTKLTVLG
notes: also called 抗CTLA-4全人源单克隆抗体
[1]
  antibody concentration at which binding is still not saturated: > 8 ng/µL
[2]
  Kd: 1 pM
